For 2 molecules, OD450 and EC50 results are on record in EP4682166A1 (Guangzhou Enmai Biotechnology Co., Ltd, dated 2026).

Assay [1] concerns the target T1, human NMI (N-myc Interacting protein), recombinant protein (human, UniProt Q13287 1-307, limits assumed).
T1 construct: Gene ID: 9111; also called hNMI; antigen
T1 sequence (looked up): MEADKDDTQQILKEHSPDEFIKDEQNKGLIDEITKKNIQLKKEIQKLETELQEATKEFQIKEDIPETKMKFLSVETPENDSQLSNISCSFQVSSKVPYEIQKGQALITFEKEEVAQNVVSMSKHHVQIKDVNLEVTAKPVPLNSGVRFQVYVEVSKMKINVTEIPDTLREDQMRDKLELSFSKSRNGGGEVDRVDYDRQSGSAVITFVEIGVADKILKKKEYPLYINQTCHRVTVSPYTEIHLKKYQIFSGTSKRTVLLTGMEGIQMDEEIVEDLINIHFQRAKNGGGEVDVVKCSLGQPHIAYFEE
The assay is described as follows: sandwich ELISA; detection 94C4-1-biotin 0.5µg/mL; hNMI 97.656 pg/mL. For orientation: An ELISA detects its analyte on a solid surface through an enzyme-linked reagent.

The target in assay [2] is T1, human NMI (N-myc Interacting protein), …. The assay can be described thus: sandwich ELISA; detection 94C4-1-biotin 0.5µg/mL; hNMI 25,000.000 pg/mL.
Assay [3] shares this target. The assay is described as follows: sandwich ELISA; detection 39B4-1-biotin; hNMI 33.333 ng/mL.
Assay [4] shares this target. The assay can be described thus: sandwich ELISA; detection 94C4-1-biotin 0.5µg/mL; hNMI 390.625 pg/mL.
The target is the same in assay [5]. The assay can be described thus: indirect ELISA, coated hNMI.
The target is the same in assay [6]. The assay can be described thus: sandwich ELISA; detection 94C4-1-biotin 1µg/mL; hNMI 6,250.000 pg/mL.
Assay [7] has the same target. The assay is described as follows: sandwich ELISA; detection 94C4-1-biotin 1µg/mL; hNMI 12,500.000 pg/mL.
Assay [8] shares this target. The assay can be described thus: sandwich ELISA; detection 98G10-1-biotin; hNMI 11.111 ng/mL.
Assay [9] shares this target. The assay is described as follows: sandwich ELISA; detection 94C4-1-biotin 1µg/mL; hNMI 781.250 pg/mL.
For assay [10] the target is unchanged. The assay can be described thus: sandwich ELISA; detection 94C4-1-biotin 1µg/mL; hNMI 97.656 pg/mL.
Assay [11] shares this target. The assay is described as follows: sandwich ELISA; detection 98G10-1-biotin; hNMI 33.333 ng/mL.
For assay [12] the target is unchanged. The assay can be described thus: sandwich ELISA; detection 94C4-1-biotin 0.5µg/mL; hNMI 6,250.000 pg/mL.
Assay [13] shares this target. The assay is described as follows: sandwich ELISA; detection 94C4-1-biotin 1µg/mL; hNMI 48.828 pg/mL.
Assay [14] shares this target. The assay can be described thus: sandwich ELISA; detection 39B4-1-biotin; hNMI 11.111 ng/mL.
Assay [15] shares this target. The assay can be described thus: sandwich ELISA; detection 94C4-1-biotin 0.5µg/mL; hNMI 195.313 pg/mL.
The target is the same in assay [16]. The assay is described as follows: sandwich ELISA; detection 98G10-1-biotin; hNMI 100.000 ng/mL.
Assay [17] shares this target. The assay is described as follows: sandwich ELISA; detection 94C4-1-biotin 1µg/mL; hNMI 25,000.000 pg/mL.
Assay [18] shares this target. The assay can be described thus: sandwich ELISA; detection 39B4-1-biotin; hNMI 3.704 ng/mL.
For assay [19] the target is unchanged. The assay is described as follows: sandwich ELISA; detection 98G10-1-biotin; hNMI 1.235 ng/mL.
For assay [20] the target is unchanged. The assay is described as follows: sandwich ELISA; detection 94C4-1-biotin 0.5µg/mL; hNMI 50,000.000 pg/mL.
Assay [21] has the same target. The assay is described as follows: sandwich ELISA; detection 94C4-1-biotin 0.5µg/mL; hNMI 48.828 pg/mL.
For assay [22] the target is unchanged. The assay is described as follows: sandwich ELISA; detection 94C4-1-biotin 0.5µg/mL; hNMI 12,500.000 pg/mL.
The target is the same in assay [23]. The assay is described as follows: sandwich ELISA; detection 94C4-1-biotin 0.5µg/mL; hNMI 1,562.500 pg/mL.

B1: monoclonal antibody B-8 (antibody, V domains shown)
VH: QSLEESGGDLVKPGASLTLTCTASGFSFSSSYYMCWVRQAPGKGLEWIACIYAGSSGSTYYASWAKGRFTISKTSSTTVTLQMTSLTAADTATYFCAREYSYDDYGDFWGFNLWGPGTLVTVSS
VL: ALVMTQTPSSVSAAVGGTVTINCQASQNIYTNLAWYQQKPGQPPKLLIYGASNLESGVPSRFKGSGSGTEYTLTISDLECDDAATYYCQSSLYSRIADRANAFGGGTEVVVK
notes: Rabbit monoclonal antibody; also called B8-1
In the case of B1, the OD450 in [1] was 0.113 OD450; in assay [2], 2.71 OD450; in assay [3] it was 2.43 OD450; in assay [4] it was 0.178 OD450; in assay [6], 1.3 OD450; in assay [7], 2.03 OD450. For the same molecule, the OD450 in assay [8] worked out at 1.38 OD450; in assay [9], 0.288 OD450; in assay [10], 0.15 OD450; in assay [11] it was 2.48 OD450; in assay [12], 1.29 OD450; in assay [13], 0.139 OD450. Besides, the OD450 came out at 1.25 OD450 in [14]; 0.134 OD450 in assay [15]; 3.02 OD450 in assay [16]; 2.79 OD450 in assay [17]; 0.563 OD450 in [18]; 0.307 OD450 in assay [19]. In addition, the OD450 in [20] is 3.17 OD450; in assay [21], 0.102 OD450; in assay [22] it was 2.03 OD450; in assay [23], 0.42 OD450. For the same molecule, the EC50 in assay [5] stood at 0.0444 µg/mL.

B2: monoclonal antibody 240B10-1 (antibody, V domains shown)
VH: QSLEESGGRLVTPGGSLTLTCTVSGIDLSSYTMGWVRQAPGKGLEYIGIISGGGRTYYASWAKGRFTISKTSSTTVDLKVTSLTTEDTATYFCARIYTLWGQGTLVTVSS
VL: QVLTQTLASVSAAVGGTVTINCQSSQSVYNNDYLAWFQQKSGQPPKQLIHSASKLASGVPSRFKGSGSGTQFTLTINDVQCDDAATYYCLGGYDCYSADCNVFGGGTEVVVK
notes: Rabbit monoclonal antibody
Regarding B2, the OD450 stood at 0.146 OD450 in assay [1]; 2.94 OD450 in assay [2]; 2.67 OD450 in [3]; 0.268 OD450 in assay [4]; 1.47 OD450 in assay [6]; 2.17 OD450 in assay [7]. The OD450 in assay [8] was determined as 1.7 OD450; in assay [9], 0.351 OD450; in assay [10], 0.185 OD450; in [11] it was 2.56 OD450; in assay [12], 1.58 OD450; in [13], 0.167 OD450. The OD450 in [14] stood at 1.71 OD450; in assay [15] it was 0.187 OD450; in assay [16], 3.14 OD450; in assay [17], 2.75 OD450; in assay [18], 0.785 OD450; in [19] it was 0.362 OD450. Besides, the OD450 in assay [20] turned out to be 3.33 OD450; in [21], 0.125 OD450; in assay [22], 2.32 OD450; in assay [23], 0.907 OD450. The EC50 in assay [5] turned out to be 0.0477 µg/mL.

Usually EC50 stands for the concentration needed to bring the measured effect to its halfway point.
